In patent publication US7060284:

Biological target: HER-2 protein (human p185 HER-2 receptor) (human) (UniProt P04626)
Test: flow cytometry on SKBR3 cells, control sample

**Q.** negative control sera (antibody) was tested. Which Mean Cell Fluorescence did it give?
**A.** 0.647
